This passage reports Kd results from publication PMC7067766, “A receptor for the complement regulator factor H increases transmission of trypanosomes to tsetse flies” (Nature Communications, 2020).

For orientation: Kd means the free concentration of one partner at which half of the binding sites on the other are occupied at equilibrium, for simple one-to-one binding.

T1: recombinant bovine FH, complete (residues 18-1236) (bovine, UniProt Q28085 18-1236)
T1 construct: complement factor H, bovine, complete (residues 18-1236); pDest12; CD33 signal peptide, then 10xHis, AviTag, GSGSGS linker and a TEV site before the ORF; also called full-length bovine FH; recombinant FH; source: G22 CHO cells, secreted, purified (Ni-NTA)
T1 sequence (looked up): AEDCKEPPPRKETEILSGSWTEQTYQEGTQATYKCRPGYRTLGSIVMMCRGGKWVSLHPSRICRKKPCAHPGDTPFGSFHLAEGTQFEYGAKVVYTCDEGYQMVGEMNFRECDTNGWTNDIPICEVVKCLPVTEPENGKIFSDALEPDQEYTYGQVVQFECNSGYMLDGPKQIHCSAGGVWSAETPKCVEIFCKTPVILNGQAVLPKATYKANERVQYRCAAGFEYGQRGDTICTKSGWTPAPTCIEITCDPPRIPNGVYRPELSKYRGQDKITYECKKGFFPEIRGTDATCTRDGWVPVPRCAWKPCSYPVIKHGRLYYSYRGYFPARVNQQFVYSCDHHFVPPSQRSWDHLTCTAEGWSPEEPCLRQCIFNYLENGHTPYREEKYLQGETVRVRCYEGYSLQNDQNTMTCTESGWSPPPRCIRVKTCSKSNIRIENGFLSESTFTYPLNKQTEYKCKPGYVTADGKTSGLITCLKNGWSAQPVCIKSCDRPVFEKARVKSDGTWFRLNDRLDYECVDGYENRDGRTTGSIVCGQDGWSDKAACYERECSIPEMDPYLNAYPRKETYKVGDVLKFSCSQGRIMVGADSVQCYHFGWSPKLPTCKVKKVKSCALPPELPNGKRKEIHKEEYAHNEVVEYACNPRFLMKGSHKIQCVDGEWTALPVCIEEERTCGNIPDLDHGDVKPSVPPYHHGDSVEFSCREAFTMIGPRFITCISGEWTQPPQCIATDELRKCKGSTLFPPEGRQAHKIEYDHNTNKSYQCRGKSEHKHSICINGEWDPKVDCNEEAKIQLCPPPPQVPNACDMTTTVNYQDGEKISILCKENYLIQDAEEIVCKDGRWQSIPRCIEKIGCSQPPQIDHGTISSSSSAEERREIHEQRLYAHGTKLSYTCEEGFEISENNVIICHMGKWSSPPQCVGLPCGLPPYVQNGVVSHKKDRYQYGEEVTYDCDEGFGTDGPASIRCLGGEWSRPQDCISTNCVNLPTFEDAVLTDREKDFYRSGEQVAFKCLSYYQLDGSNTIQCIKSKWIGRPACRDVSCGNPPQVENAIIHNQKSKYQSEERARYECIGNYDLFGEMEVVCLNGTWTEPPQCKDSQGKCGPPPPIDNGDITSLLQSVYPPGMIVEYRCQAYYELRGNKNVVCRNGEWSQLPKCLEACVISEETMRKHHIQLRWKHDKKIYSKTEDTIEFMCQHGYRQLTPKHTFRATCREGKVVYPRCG

T2: bovine complement factor H from serum (bovine (endogenous in bovine serum), UniProt Q28085 19-1236)
T2 construct: complement factor H, bovine, native serum protein of 145 kDa; also called FH; bovine FH; source: endogenous, bovine serum (Sigma-Aldrich); purified from adult bovine serum (FHR-agarose, eluted with glycine-HCl pH 2.5)
T2 sequence: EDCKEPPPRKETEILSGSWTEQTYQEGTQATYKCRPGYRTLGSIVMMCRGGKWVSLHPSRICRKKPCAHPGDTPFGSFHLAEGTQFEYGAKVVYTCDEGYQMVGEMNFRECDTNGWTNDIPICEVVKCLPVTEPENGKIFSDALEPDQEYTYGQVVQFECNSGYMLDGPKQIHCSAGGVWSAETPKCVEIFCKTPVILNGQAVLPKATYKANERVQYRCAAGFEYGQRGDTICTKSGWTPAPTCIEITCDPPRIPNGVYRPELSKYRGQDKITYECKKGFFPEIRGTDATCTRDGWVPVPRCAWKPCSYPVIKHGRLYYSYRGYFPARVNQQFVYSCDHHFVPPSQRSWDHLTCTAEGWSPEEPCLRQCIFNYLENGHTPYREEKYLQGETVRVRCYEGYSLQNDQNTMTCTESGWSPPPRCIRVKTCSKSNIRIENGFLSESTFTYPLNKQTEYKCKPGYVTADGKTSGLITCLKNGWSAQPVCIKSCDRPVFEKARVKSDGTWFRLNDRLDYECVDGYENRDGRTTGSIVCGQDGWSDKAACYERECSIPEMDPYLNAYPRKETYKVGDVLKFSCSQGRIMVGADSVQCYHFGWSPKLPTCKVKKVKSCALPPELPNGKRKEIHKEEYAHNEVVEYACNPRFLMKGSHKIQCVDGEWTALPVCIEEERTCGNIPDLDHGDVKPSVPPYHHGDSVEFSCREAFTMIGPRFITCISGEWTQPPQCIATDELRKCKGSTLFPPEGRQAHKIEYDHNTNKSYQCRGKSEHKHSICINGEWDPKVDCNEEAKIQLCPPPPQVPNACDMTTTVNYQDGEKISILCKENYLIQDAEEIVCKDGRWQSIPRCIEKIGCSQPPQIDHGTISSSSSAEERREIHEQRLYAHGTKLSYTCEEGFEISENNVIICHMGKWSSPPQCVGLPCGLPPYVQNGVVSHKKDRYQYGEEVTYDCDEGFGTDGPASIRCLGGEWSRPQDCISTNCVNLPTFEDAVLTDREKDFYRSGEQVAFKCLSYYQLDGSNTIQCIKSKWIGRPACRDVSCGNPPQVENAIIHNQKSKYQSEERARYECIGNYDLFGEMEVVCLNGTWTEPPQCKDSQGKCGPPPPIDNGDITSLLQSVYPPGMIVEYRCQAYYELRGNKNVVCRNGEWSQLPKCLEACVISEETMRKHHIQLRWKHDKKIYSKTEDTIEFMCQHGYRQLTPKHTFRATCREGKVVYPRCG

B1: bovine FH domain 5 (residues 264-323), as used in SPR (domain or fragment, UniProt Q28085 264-323, looked up)
chain: EITCDPPRIPNGVYRPELSKYRGQDKITYECKKGFFPEIRGTDATCTRDGWVPVPRCAWK
notes: complement factor H, bovine, domain 5 (residues 264-323); N-terminal tags, a TEV site and an extra serine-glycine linker before domain 5; also called domain 5 alone; source: G22 CHO cells, secreted, purified (Ni-NTA)
B2: bovine FH domains 4-5-6 (residues 207-385) (domain or fragment, UniProt Q28085 207-385, looked up)
chain: EIFCKTPVILNGQAVLPKATYKANERVQYRCAAGFEYGQRGDTICTKSGWTPAPTCIEITCDPPRIPNGVYRPELSKYRGQDKITYECKKGFFPEIRGTDATCTRDGWVPVPRCAWKPCSYPVIKHGRLYYSYRGYFPARVNQQFVYSCDHHFVPPSQRSWDHLTCTAEGWSPEEPCLR
notes: complement factor H, bovine, domains 4-5-6 (residues 207-385); pDest12; CD33 signal peptide, ORF, C-terminal GSGSGS linker, AviTag and 10xHis; source: G22 CHO cells, secreted, purified (Ni-NTA)
B3: human FH domains 4-5-6 (residues 207-387) (domain or fragment)
chain: not shown
notes: complement factor H, human, domains 4-5-6 (residues 207-387); pDest12; CD33 signal peptide, ORF, C-terminal GSGSGS linker, AviTag and 10xHis; also called human domains 4-5-6; source: G22 CHO cells, secreted, purified (Ni-NTA)
B4: mouse FH domains 4-5-6 (residues 207-387) (domain or fragment, UniProt P06909 207-387, looked up)
chain: EILCTPPRVENGDGINVKPVYKENERYHYKCKHGYVPKERGDAVCTGSGWSSQPFCEEKRCSPPYILNGIYTPHRIIHRSDDEIRYECNYGFYPVTGSTVSKCTPTGWIPVPRCTLKPCEFPQFKYGRLYYEESLRPNFPVSIGNKYSYKCDNGFSPPSGYSWDYLRCTAQGWEPEVPCVR
notes: complement factor H, mouse, domains 4-5-6 (residues 207-387); pDest12; CD33 signal peptide, ORF, C-terminal GSGSGS linker, AviTag and 10xHis; also called mouse domains 4-5-6; source: G22 CHO cells, secreted, purified (Ni-NTA)
B5: C-terminally biotinylated FHR (residues 25-249, AviTag) (receptor)
chain: NDNLEAELEQTKALCEVAKQLRKLPLLTEERRFEAVGALEESKKAAKEGKKAAKRAEAGAVGGTSEQQQAAKRAREAATVAYEASVRAEAAAMEVKRFARALDSFESEYESVFSGLLRGAAEHGGNETIKQLAKECATAVADDVTPEALTRAAHNLRGLYMQDFAEEYLQEANEAANKLEELQKATAETVRAADAADDAKSEAQEEAAQFPEIDDDDSDEDKEDE
modifications: biotin on the C-terminal AviTag
notes: T. brucei FHR, Tb927.5.4020, residues 25-249, synthetic gene optimized for E. coli in pET15b; TEV site after the His tag; GSGSGSS linker between FHR and the AviTag; also called FHR WT; WT FHR; source: E. coli BL21(DE3), purified (Ni-NTA), biotinylated with BirA; not shown: His6, N-terminal, cleaved; AviTag, C-terminal, kept

Holding throughout (settings): both partners purified
The target in assay [1] is B5. Nature of the assay: SPR; biotinylated FHR or mutant on a streptavidin chip (Biacore T-100/T-200), FH proteins flowed over in twofold dilutions; 20 °C, 10 mM HEPES, 150 mM NaCl, 0.005% Tween-20 pH 7.5; kinetic fit: two-state model (bovine FH) or 1:1 model (bovine domains 4-5-6 and 5). (In general: SPR reads the build-up and loss of mass on a sensor chip optically.)
The target of assay [2] is B5. The assay can be described thus: SPR; biotinylated FHR or mutant 2 on a streptavidin chip, mouse or human FH domains 4-5-6 flowed over; 20 °C, 10 mM HEPES, 150 mM NaCl, 0.005% Tween-20 pH 7.5; steady-state analysis.
The target of assay [3] is T1, recombinant bovine FH, complete …. Nature of the assay: SPR; biotinylated FHR or mutant on a streptavidin chip (Biacore T-100/T-200), FH proteins flowed over in twofold dilutions; 20 °C, 10 mM HEPES, 150 mM NaCl, 0.005% Tween-20 pH 7.5; kinetic fit: two-state model (bovine FH) or 1:1 model (bovine domains 4-5-6 and 5).
In assay [4] the target is T2, bovine complement factor H from serum. The description is as above.

In turn, B1 yielded a Kd in assay [1] of 562 nM. In turn, B2 returned a Kd in assay [1] of 167 nM. In assay [2], B3 registered a Kd of 8700 nM.

B4: in assay [2], the affinity, expressed as Kd, was 12000 nM. On to B5, for which the figures for the Kd in assay [3] and in assay [4] were 114 nM and 153 nM, respectively.
